Data on 18 molecules can be found in patent publication US20210395713A1 (TRUSTEES OF DARTMOUTH COLLEGE, published 2021).

What all share (assay): MHC II competition binding assay
The target of assay [1] is T1, purified recombinant MHC II protein, allele DRB1*0301 (human).
T1 construct: bought from Benaroya Research Institute; also called MHC-II DR molecule

Assay [2] concerns the target T2, purified recombinant MHC II protein, allele DRB1*0801 (human).
T2 construct: bought from Benaroya Research Institute; also called MHC-II DR molecule

Assay [3] deals with T3, purified recombinant MHC II protein, allele DRB1*0401 (human).
T3 construct: bought from Benaroya Research Institute; also called DR4; MHC-II DR molecule

The target of assay [4] is T4, purified recombinant MHC II protein, allele DRB1*0701 (human).
T4 construct: bought from Benaroya Research Institute; also called MHC-II DR molecule

Assay [5] addresses T5, purified recombinant MHC II protein, allele DRB1*1301 (human).
T5 construct: bought from Benaroya Research Institute; also called MHC-II DR molecule

The target in assay [6] is T6, purified recombinant MHC II protein, allele DRB1*0101 (human).
T6 construct: bought from Benaroya Research Institute; also called MHC-II DR molecule

The target of assay [7] is T7, purified recombinant MHC II protein, allele DRB1*1501 (human).
T7 construct: bought from Benaroya Research Institute; also called MHC-II DR molecule

For assay [8], the target named is T8, purified recombinant MHC II protein, allele DRB1*1101 (human).
T8 construct: bought from Benaroya Research Institute; also called MHC-II DR molecule

For assay [9], the target named is T2, purified recombinant MHC II protein, …. This is another data set of the same source.
The target of assay [10] is T5, purified recombinant MHC II protein, …. This is another data set of the same source.
In assay [11] the target is T6, purified recombinant MHC II protein, …. This is another data set of the same source.
The target of assay [12] is T7, purified recombinant MHC II protein, …. This is another data set of the same source.
For assay [13], the target named is T8, purified recombinant MHC II protein, …. This is another data set of the same source.
The target of assay [14] is T1, purified recombinant MHC II protein, …. This is another data set of the same source.
Assay [15] addresses T3, purified recombinant MHC II protein, …. This is another data set of the same source.
In assay [16] the target is T4, purified recombinant MHC II protein, …. This is another data set of the same source.
In assay [17] the target is T5, purified recombinant MHC II protein, …. The source holds these as a separate data set.
Assay [18] deals with T6, purified recombinant MHC II protein, …. This is another data set of the same source.
Assay [19] addresses T7, purified recombinant MHC II protein, …. The source holds these as a separate data set.
Assay [20] deals with T8, purified recombinant MHC II protein, …. The source holds these as a separate data set.
Assay [21] deals with T2, purified recombinant MHC II protein, …. The source holds these as a separate data set.
Assay [22] concerns the target T6, purified recombinant MHC II protein, …. The source holds these as a separate data set.
The target in assay [23] is T1, purified recombinant MHC II protein, …. This is another data set of the same source.
The target in assay [24] is T2, purified recombinant MHC II protein, …. The source holds these as a separate data set.
Assay [25] concerns the target T3, purified recombinant MHC II protein, …. The source holds these as a separate data set.
In assay [26] the target is T4, purified recombinant MHC II protein, …. This is another data set of the same source.
The target of assay [27] is T5, purified recombinant MHC II protein, …. This is another data set of the same source.
For assay [28], the target named is T6, purified recombinant MHC II protein, …. The source holds these as a separate data set.
Assay [29] deals with T7, purified recombinant MHC II protein, …. This is another data set of the same source.
Assay [30] has as its target T8, purified recombinant MHC II protein, …. The source holds these as a separate data set.
Assay [31] addresses T2, purified recombinant MHC II protein, …. The source holds these as a separate data set.
In assay [32] the target is T4, purified recombinant MHC II protein, …. This is another data set of the same source.
The target of assay [33] is T8, purified recombinant MHC II protein, …. The source holds these as a separate data set.
Assay [34] has as its target T3, purified recombinant MHC II protein, …. The source holds these as a separate data set.
Assay [35] concerns the target T4, purified recombinant MHC II protein, …. The source holds these as a separate data set.
Assay [36] has as its target T6, purified recombinant MHC II protein, …. This is another data set of the same source.
Assay [37] deals with T7, purified recombinant MHC II protein, …. The source holds these as a separate data set.
The target in assay [38] is T8, purified recombinant MHC II protein, …. This is another data set of the same source.

Read-outs that look alike come from different tables or passages of the source.

B1: cluster 4 wild-type (C4WT) epitope peptide (peptide)
peptide: DYVKAGQIIGWSGSTGY
For orientation: IC50 means the midpoint of a concentration-inhibition curve. Turning to B1, the IC50 in assay [1] was 31.4 µM; in assay [2] it was 62.5 µM; in [3], less than 0.01 µM; in assay [4] it was 92.9 µM; in assay [5], 78.5 µM; in assay [6], less than 0.01 µM. The results for the IC50 in assay [7] and in assay [8] were less than 0.01 µM and 1.69 µM, respectively.

B2: cluster 4 peptide with Lys95Glu/Ile99Gln (peptide)
peptide: DYVEAGQQIGWSGSTGY
notes: synthetic mutated peptide of the lysostaphin catalytic domain; also called 95-99
For B2, the IC50 in [3] is 25.8 µM; in assay [4] it was 104 µM; in assay [6] it was less than 0.01 µM; in assay [7], less than 0.01 µM; in assay [8] it was 25.4 µM.

B3: cluster 4 peptide with Tyr93His (peptide)
peptide: DHVKAGQIIGWSGSTGY
notes: synthetic mutated peptide of the lysostaphin catalytic domain; also called Y93H
Regarding B3, the IC50 in assay [4] is 182 µM; in assay [6], 103 µM; in [7], less than 0.01 µM.

B4: cluster 4 peptide with Tyr93His/Lys95Glu (peptide)
peptide: DHVEAGQIIGWSGSTGY
notes: synthetic mutated peptide of the lysostaphin catalytic domain; also called 93_95
As for B4, the IC50 came to 110 µM in assay [1]; 30.9 µM in [2]; 25.5 µM in assay [3]; 24.9 µM in assay [4]; 18.9 µM in [5]; 9.98 µM in [6]. Moreover, the results for the IC50 in assay [7] and in assay [8] were 0.06 µM and 25 µM, respectively.

B5: cluster 4 peptide with Lys95Glu (peptide)
peptide: DYVEAGQIIGWSGSTGY
notes: synthetic mutated peptide of the lysostaphin catalytic domain; also called K95E
Regarding B5, the concentration for half-maximal inhibition (IC50) in assay [1] was 1.9 µM; in assay [2] it was 12.2 µM; in [3], less than 0.01 µM; in [4], 4.81 µM; in assay [5] it was 25.7 µM; in assay [6] it was less than 0.01 µM. The IC50 in assay [7] was less than 0.01 µM; in assay [8], 6.32 µM.

B6: cluster 4 peptide with Tyr93His/Lys95Glu/Ile99Gln (peptide)
peptide: DHVEAGQQIGWSGSTGY
notes: synthetic mutated peptide of the lysostaphin catalytic domain; also called 939599
On to B6, for which, in [4], the IC50 amounted to 179 µM.

B7: cluster 4 peptide with Ile99Gln (peptide)
peptide: DYVKAGQQIGWSGSTGY
notes: synthetic mutated peptide of the lysostaphin catalytic domain; also called I99Q
In the case of B7, the IC50 in assay [3] turned out to be 6.16 µM; in assay [4], 93.1 µM; in [6], 31.7 µM; in assay [7] it was 66.1 µM; in assay [8], 24.3 µM.

B8: cluster 4 peptide with Tyr93His/Ile99Gln (peptide)
peptide: DHVKAGQQIGWSGSTGY
notes: synthetic mutated peptide of the lysostaphin catalytic domain; also called 93_99
As for B8, the IC50 was less than 0.01 µM in [3], 60.5 µM in [4], less than 0.01 µM in assay [6] and less than 0.01 µM in [7].

B9: cluster 1 wild-type (C1WT) epitope peptide (peptide)
peptide: SAQWLNNYKKGYGYG
For B9, the IC50 in [9] was 13.7 µM; in assay [10], 137 µM; in assay [11], 215 µM; in assay [12], 102 µM; in [13], 0.94 µM.

B10: cluster 1 peptide with Asn13His (peptide)
peptide: SAQWLNHYKKGYGYG
notes: synthetic mutated peptide of the lysostaphin catalytic domain
As for B10, the IC50 in assay [10] is 41.6 µM; in assay [13], 4.13 µM.

B11: cluster 1 peptide with Asn12Gly (peptide)
peptide: SAQWLGNYKKGYGYG
notes: as for B10
As for B11, the 50% inhibitory concentration (IC50) is 58.6 µM in [9], less than 0.01 µM in [11] and 5.16 µM in assay [13].

B12: cluster 2 wild-type (C2WT) epitope peptide (peptide)
peptide: GVDFFMNIGTPVKAISSGKIV
For the molecule B12, the IC50 in [14] was 60.1 µM; in assay [15], 13.7 µM; in assay [16], 8.19 µM; in assay [17], 104 µM; in [18] it was 0.22 µM; in assay [19], 2.37 µM. The half-maximal inhibitory concentration (IC50) in [20] was found to be 10.1 µM.

B13: cluster 2 peptide with Ile41Glu/Lys46His (peptide)
peptide: GVDFFMNEGTPVHAISSGKIV
notes: synthetic mutated peptide of the lysostaphin catalytic domain; also called 41_46
B13: the IC50 in assay [15] is less than 0.01 µM; in [16] it was 14.3 µM; in [18] it was less than 0.01 µM; in assay [19], less than 0.01 µM; in assay [20], less than 0.01 µM.

B14: cluster 2 peptide with Ile41Glu (peptide)
peptide: GVDFFMNEGTPVKAISSGKIV
notes: synthetic mutated peptide of the lysostaphin catalytic domain; also called I41E
With B14, the IC50 in assay [15] amounted to 3.48 µM; in [16], 7.51 µM; in assay [17] it was 143 µM; in assay [18], 0.59 µM; in [19] it was 7.44 µM; in [20], 146 µM.

B15: cluster 2 peptide with Lys46His (peptide)
peptide: GVDFFMNIGTPVHAISSGKIV
notes: synthetic mutated peptide of the lysostaphin catalytic domain; also called K46H
As for B15, the concentration for half-maximal inhibition (IC50) in assay [14] stood at 152 µM; in [21], 87.5 µM; in assay [15] it was 1.65 µM; in assay [16] it was 4.46 µM; in assay [17], 212 µM; in assay [18], 0.49 µM. The IC50 in assay [19] turned out to be 2.55 µM; in assay [20], 18.3 µM. In addition, in assay [22], the “fold decrease in binding against C2WT” value was 2 fold.

B16: cluster 3 wild-type (C3WT) epitope peptide (peptide)
peptide: GVHRQWYMHLSKYNVKVGD
Regarding B16, the IC50 in [23] was 155 µM; in [24] it was 0.14 µM; in [25] it was 38.1 µM; in assay [26], 0.41 µM; in assay [27], 54.7 µM; in [28], less than 0.01 µM. Besides, the values for the IC50 in assay [29] and in assay [30] were 9.51 µM and less than 0.01 µM, respectively.

B17: cluster 3 peptide with Leu83Met (peptide)
peptide: GVHRQWYMHMSKYNVKVGD
notes: synthetic mutated peptide of the lysostaphin catalytic domain; also called L83M
With B17, the IC50 in [23] turned out to be 115 µM; in assay [24], 0.37 µM; in assay [26] it was 2.09 µM; in [27] it was 27.4 µM; in assay [28] it was 32.4 µM; in [29] it was 4.42 µM. Besides, the IC50 in assay [30] was found to be 0.11 µM. Also, the “fold decrease in binding against C3WT” value in assay [31] is approximately 5 fold; in assay [32], more than 2 fold; in assay [22], 2000 fold; in assay [33], 10 fold.

B18: cluster 5 peptide with Ser124Gly (peptide)
peptide: HLHFQRMVNSFGNPTAQ
notes: synthetic mutated peptide of the lysostaphin catalytic domain; also called S124G
Consider B18, for which the IC50 in assay [34] is 0.04 µM; in assay [35], 151 µM; in assay [36], less than 0.01 µM; in assay [37], less than 0.01 µM; in assay [38], 0.3 µM.
